Patent publication US20240025956A1 (MIYAGI PREFECTURAL HOSPITAL ORGANIZATION, published 2024)
Numbering of substitutions follows the chain as printed. One block for each binder: values may come before it.

Assays:
[1] = molecular target: T1, mouse IL-2 receptor α (mouse, UniProt P01590 22-268); experiment: NanoLuc on-cell binding, mouse IL-2Rα-expressing 293T, ratio 293Ta/293T, 10 nM
T1 construct: whole, on cells; also called mouse IL-2Rα; CD25
T1 sequence (looked up): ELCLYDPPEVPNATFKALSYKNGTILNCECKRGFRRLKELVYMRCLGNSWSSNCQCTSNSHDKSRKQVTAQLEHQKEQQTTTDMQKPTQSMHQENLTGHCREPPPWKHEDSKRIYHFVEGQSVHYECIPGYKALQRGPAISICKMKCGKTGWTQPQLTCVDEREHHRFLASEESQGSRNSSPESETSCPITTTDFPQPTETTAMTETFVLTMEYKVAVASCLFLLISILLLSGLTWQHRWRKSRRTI
Description: (§1) Next, IL-2 receptor α binding capability on cells (on-cell receptor binding) was measured. Specifically, 293T cells were obtained from the RIKEN Cell Bank (RCB2202). Human and mouse IL-2 receptor α-expressing 293T (293Ta) was established as cells stably expressing the IL-2 receptor α in 293T through use of lentiviral vectors (pSIN-EF-RfA2-1-human IL-2Ra and pSIN-EF-RfA2-1-mouse IL-2Ra) constructed respectively with human and mouse IL-2 receptor α-chain genes (NCBI Reference Sequence: NM_000417.2 and NM_008367.3) as cassettes. 293T and human or mouse 293Ta were allowed to adhere to a 24 wel cell culture plate (Techno Plastic Products AG, #92424). After that, a suspension (10 nM) of NanoLuc (trademark) luciferase sequence (Promega Corporation, USA)-fused mature stable mutant human MK-4-IL-2 (MK-4, pcDNA4-MK-4-NLuc, corresponding to a comparative example), mature stable mutant human MK-6-IL-2 (MK-6, pcDNA4-MK-6-NLuc), mature stable mutant human IL-2 (MK-14, pcDNA4-MK-14-NLuc, IL-2 positive control), or mature stable mutant human MK-15-IL-2 (MK-15, pcDNA4-MK-15-NLuc) was added, and the mixture was subjected to a reaction by being left at rest at 4° C. for 1 hour. The cells were washed, followed by quantification. The binding capability of mutant IL-2 for the α-subunit is shown as a numerical value for a ratio between amounts bound to 293Ta and 293T (293Ta/293T). […]

[2] = molecular target: T2, human IL-2 receptor α (human, UniProt P01589 22-272); experiment: NanoLuc on-cell binding, human IL-2Rα-expressing 293T, ratio 293Ta/293T
T2 construct: whole, on cells; also called IL-2Rα; CD25
T2 sequence (looked up): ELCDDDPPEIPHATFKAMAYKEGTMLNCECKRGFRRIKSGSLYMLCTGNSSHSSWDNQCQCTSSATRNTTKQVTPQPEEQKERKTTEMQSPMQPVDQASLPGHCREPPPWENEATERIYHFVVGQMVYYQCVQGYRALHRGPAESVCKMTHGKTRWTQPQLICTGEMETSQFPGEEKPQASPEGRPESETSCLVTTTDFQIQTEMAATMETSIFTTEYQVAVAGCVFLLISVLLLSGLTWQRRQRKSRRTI
Description: as §1

[3] = molecular target: T1, mouse IL-2 receptor α; experiment: NanoLuc on-cell binding, mouse IL-2Rα-expressing 293T, ratio 293Ta/293T
Description: as §1

binding result [1]: binds
B1: NanoLuc luciferase sequence-fused mature stable mutant human MK-4-IL-2 (ligand, not shown: large carriers)
chain: APASSSTKKTQLQLEHLLLDLQMILNGINNYKNPALTAMLTFKFYMPKKATELKHLQCLEEELKPLEEVLNLAQSKNFHLRPRDLISNINVIVLELKGSETTFMCEYADETATIVEFLNRWITFAQSIISTLT
notes: also called pcDNA4-MK-4-NLuc

binding result [2]: no binding (tested: 10 nM)
B2: NanoLuc luciferase sequence-fused mature stable mutant human MK-6-IL-2 (ligand, not shown: large carriers)
chain: B1 chain with K43A, Y45A
notes: also called pcDNA4-MK-6-NLuc

binding result [2]: no binding (tested: 10 nM) | binding result [3]: no binding (tested: 10 nM)
B3: NanoLuc luciferase sequence-fused mature stable mutant human MK-15-IL-2 (ligand, not shown: large carriers)
chain: B1 chain with F42A, Y45A
notes: also called pcDNA4-MK-15-NLuc
